Results on 9 molecules are retold here after patent US12049656B2, “Process for the modification of a glycoprotein using a glycosyltransferase that is or is derived from a β(1,4)-n-acetylgalactosaminyltransferase” (Synaffix B.V., priority 2015, dated 2024).

Changes are numbered by the printed parent chain. Names may count otherwise.

One data set addresses β-(1,4)-GalNAcT (Caenorhabditis elegans, UniProt Q9GUM2). As to conditions: as donor substrate compared with UDP-GalNAc; cited from earlier work.
The next data set relates to TnGalNAcT. Briefly: Transfer of 6-modified GalNAc-UDP derivatives to trimmed brentuximab by TnGalNAcT (mass spectrometric analysis). The data set is classed as biochemical, Trichoplusia ni. As to conditions: sugar nucleotide 5 mM; TnGalNAcT 1.5 mg/mL; trimmed brentuximab 15 mg/mL; 30 °C overnight. On the procedure:
Bentuximab was trimmed analogues to the trimming of trastuzumab as described in example 6.
Trimmed bentuximab (15 mg/mL) was incubated with 6-amino-6-deoxy-GalNAc-UDP 94 (5 mM) and TnGalNAcT (1.5 mg/mL) in 10 mM MnCl2 and 25 mM Tris-HCl pH 8.0 at 30° C. overnight. A sample of the reaction mixture (2 μL) was incubated for 1 hour at 37° C. with Fabricator™ (1.25 U/μL) in phosphate-buffered saline (PBS) pH 6.6 in a total volume of 10 μL.
Trimmed bentuximab (15 mg/mL) was incubated with 6-(2-azidoacetamido)-6-deoxy-GalNAc 93 (5 mM) and TnGalNAcT (1.5 mg/mL) in 10 mM MnCl2 and 25 mM Tris-HCl pH 8.0 at 30° C. overnight. A sample of the reaction mixture (2 μL) was incubated for 1 hour at 37° C. with Fabricator™ (1.25 U/μL) in phosphate-buffered saline (PBS) pH 6.6 in a total volume of 10 μL.

Data set [1] deals with core GlcNAc(Fuc) substituted trastuzumab. Briefly: Glycosyltransfer of 6-azido-GalNAc-UDP to trimmed trastuzumab under the action of GalNAcTs (mass spectral analysis). The data set is classed as biochemical. To be noted: 6-azido-GalNAc-UDP 1 mM; for Conversions (%) of GlcNAc(Fuc) substituted trastuzumab into 6-azido-GalNAc-GlcNAc(Fuc)-substituted trastuzumab: trimmed trastuzumab 10 mg/mL; for product formation, mass spectral analysis of Fabricator-digested samples: both enzyme concentrations (0.2 or 0.5 mg/mL). On the procedure: (§1) Prior to mass spectral analysis, IgGs were either treated with DTT, which allows analysis of both light and heavy chain, or treated with Fabricator™ (commercially available from Genovis, Lund, Sweden), which allows analysis of the Fc/2 fragment. For analysis of both light and heavy chain, a solution of 20 μg (modified) IgG was incubated for 5 minutes at 37° C. with 100 mM DTT in a total volume of 4 μL. If present, azide-functionalities are reduced to amines under these conditions. For analysis of the Fc/2 fragment, a solution of 20 μg (modified) IgG was incubated for 1 hour at 37° C. with Fabricator™ (1.25 U/μL) in phosphate-buffered saline (PBS) pH 6.6 in a total volume of 10 μL. After reduction or Fabricator-digestion the samples were washed trice with milliQ using an Amicon Ultra-0.5, Ultracel-10 Membrane (Millipore) resulting in a final sample volume of approximately 40 μL. Next, the samples were analyzed by electrospray ionization time-of-flight (ESI-TOF) on a JEOL AccuTOF. Deconvoluted spectra were obtained using Magtran software.
Glycan trimming of trastuzumab was performed with endo S from Streptococcus pyogenes (commercially available from Genovis, Lund, Sweden). Thus, trastuzumab (10 mg/mL) was incubated with endo S (40 U/mL) in 25 mM Tris pH 8.0 for approximately 16 hours at 37° C. The deglycosylated IgG was concentrated and washed with 10 mM MnCl2 and 25 mM Tris-HCl pH 8.0 using an Amicon Ultra-0.5, Ultracel-10 Membrane (Millipore). […] The two peaks of heavy chain belonged to one major product (49496 Da, 90% of total heavy chain), resulting from core GlcNAc(Fuc) substituted trastuzumab, and a minor product (49351 Da, ±10% of total heavy chain), resulting from trimmed trastuzumab.
Incorporation of 6-azidoGalNAc was tested for CeGalNAcT(30-383) (identified by SEQ ID NO: 6), AsGalNAcT(30-383) (identified by SEQ ID NO: 7), TnGalNAcT(33-421) (identified by SEQ ID NO: 8) and DmGalNAcT(47-403) (identified by SEQ ID NO: 9), which were expressed and purified as described in example 5. Trimmed trastuzumab (10 mg/mL), obtained by endo S treatment of trastuzumab as described above, was incubated with 6-azido-GalNAc-UDP (1 mM, commercially available from GlycoHub) in 10 mM MnCl2 and 25 mM Tris-HCl pH 7.5 and either 0.2 or 0.5 mg/mL of one of the above mentioned GalNAcTs.

For data set [2] the following is noted: cited from earlier work.
Data set [3] concerns core GlcNAc(Fuc) substituted trastuzumab. Briefly: Glycosyltransfer of 6-azido-Gal-UDP to trimmed trastuzumab under the action of bovine β(1,4)-Gal-T1. The data set is classed as biochemical. To be noted: 0.1 or 0.5 mg/mL enzyme; 6-azido-Gal-UDP 1 mM; 30 °C overnight. On the procedure:
as §1
Glycan trimming of trastuzumab was performed with endo S from Streptococcus pyogenes (commercially available from Genovis, Lund, Sweden). Thus, trastuzumab (10 mg/mL) was incubated with endo S (40 U/mL) in 25 mM Tris pH 8.0 for approximately 16 hours at 37° C. […]

Sequence of β-(1,4)-GalNAcT (Q9GUM2 whole entry): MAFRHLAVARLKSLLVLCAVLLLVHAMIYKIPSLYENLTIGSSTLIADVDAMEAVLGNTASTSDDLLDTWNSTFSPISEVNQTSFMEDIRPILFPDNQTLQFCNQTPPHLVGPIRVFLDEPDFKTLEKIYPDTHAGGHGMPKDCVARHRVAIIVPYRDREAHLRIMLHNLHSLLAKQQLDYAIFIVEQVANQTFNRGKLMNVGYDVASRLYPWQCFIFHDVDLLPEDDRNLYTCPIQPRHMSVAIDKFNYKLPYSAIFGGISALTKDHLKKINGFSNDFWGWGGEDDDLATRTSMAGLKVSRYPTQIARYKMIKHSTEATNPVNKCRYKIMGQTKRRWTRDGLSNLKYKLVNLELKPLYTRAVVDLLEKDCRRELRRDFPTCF

For the molecule `CC(=O)N[C@H]1[C@@H](OP(=O)(O)OP(=O)(O)OC[C@H]2O[C@@H](n3ccc(=O)[nH]c3=O)[C@H](O)[C@@H]2O)O[C@H](CO)[C@@H](O)[C@@H]1O` [UDP-GlcNAc], on β-(1,4)-GalNAcT, the transferase activity remains is 0.7%.

Turning to `CC(=O)NC1C(OP(=O)(O)OP(=O)(O)OCC2OC(n3ccc(=O)[nH]c3=O)C(O)C2O)OC(CNC(=O)CN=[N+]=[N-])C(O)C1O` (stereo not drawn) [compound 93, 6-(2-azidoacetamido)-6-deoxy-GalNAc-UDP], the “conversion to the modified brentuximab product” value with TnGalNAcT came to 70%.

For the molecule `CC(=O)NC1C(OP(=O)(O)OP(=O)(O)OCC2OC(n3ccc(=O)[nH]c3=O)C(O)C2O)OC(CN)C(O)C1O` (stereo not drawn) [compound 94, 6-amino-6-deoxy-GalNAc-UDP], the “conversion to the modified brentuximab product” value in the data set on TnGalNAcT is on record as “full conversion”.

As to “CeGalNAcT (30-383): truncated Caenorhabditis elegans β-(1,4)-GalNAcT enzyme, amino acids 30-383 of SEQ ID NO: 2”, the “Conversions (%) of GlcNAc(Fuc) substituted trastuzumab into 6-azido-GalNAc-GlcNAc(Fuc)-substituted trastuzumab” value (“Conversions (%)” below) in data set [1] (0.2 mg/mL enzyme) and in data set [1] (0.5 mg/mL enzyme) was 0% throughout. In addition, the “product formation, mass spectral analysis of Fabricator-digested samples” value in data set [1] is on record as “no product formation”.

B1: β4GalT(Y289L,M344H): double mutant β-1,4-galactosyltransferase described by Ramakrishnan et al. (protein, UniProt P08037 1-402, looked up, variant Y289L M344H)
chain: MKFREPLLGGSAAMPGASLQRACRLLVAVCALHLGVTLVYYLAGRDLRRLPQLVGVHPPLQGSSHGAAAIGQPSGELRLRGVAPPPPLQNSSKPRSRAPSNLDAYSHPGPGPGPGSNLTSAPVPSTTTRSLTACPEESPLLVGPMLIEFNIPVDLKLVEQQNPKVKLGGRYTPMDCISPHKVAIIIPFRNRQEHLKYWLYYLHPILQRQQLDYGIYVINQAGESMFNRAKLLNVGFKEALKDYDYNCFVFSDVDLIPMNDHNTYRCFSQPRHISVAMDKFGFSLPYVQLFGGVSALSKQQFLSINGFPNNYWGWGGEDDDIYNRLAFRGMSVSRPNAVIGKCRHIRHSRDKKNEPNPQRFDRIAHTKETMLSDGLNSLTYMVLEVQRYPLYTKITVDIGTPS
As for B1, in data set [2] (Mg2+), the “activity in the presence of Mg2+” value is on record as 25-30%. The “loss of Mn2+-dependent activity” value in data set [2] (Mn2+) is given as 98%.

B2: bovine β(1,4)-Gal-T1: bovine β(1,4)-galactosyltransferase, commercially available from Sigma Aldrich (protein)
chain: B1 chain with V158I, P187L, I205M, L206V, H344M
modifications: Bos Taurus GalT Y289L mutant
notes: bovine β(1,4)-galactosyltransferase, commercially available from Sigma Aldrich
Consider B2, for which the “product formation, mass spectral analysis of reduced samples” value in data set [3] is recorded as “no product formation”.

B3: TnGalNAcT (33-421): truncated Trichoplusia ni β-(1,4)-GalNAcT enzyme, amino acids 33-421 of SEQ ID NO: 4 (protein)
chain: SPLRTYLYTPLYNATQPTLRNVERLAANWPKKIPSNYIEDSEEYSIKNISLSNHTTRASVVHPPSSITETASKLDKNMTIQDGAFAMISPTPLLITKLMDSIKSYVTTEDGVKKAEAVVTLPLCDSMPPDLGPITLNKTELELEWVEKKFPEVEWGGRYSPPNCTARHRVAIIVPYRDRQQHLAIFLNHMHPFLMKQQIEYGIFIVEQEGNKDFNRAKLMNVGFVESQKLVAEGWQCFVFHDIDLLPLDTRNLYSCPRQPRHMSASIDKLHFKLPYEDIFGGVSAMTLEQFTRVNGFSNKYWGWGGEDDDMSYRLKKINYHIARYKMSIARYAMLDHKKSTPNPKRYQLLSQTSKTFQKDGLSTLEYELVQVVQYHLYTHILVNIDERS
modifications: TnGalNAcT(33-421)
With B3, the “Conversions (%)” value was 40% in data set [1] (0.2 mg/mL enzyme) and 60% in data set [1] (0.5 mg/mL enzyme). The “product formation, mass spectral analysis of Fabricator-digested samples” value in data set [1] was “partial conversion”.

B4: DmGalNAcT (47-403): truncated Drosophila melanogaster β-(1,4)-GalNAcT enzyme, amino acids 47-403 of SEQ ID NO: 5 (protein)
chain: HKYAHIYGNASSDGAGGSEASRLPASPLALSKDRERDQELNGGPNSTIRTVIATANFTSIPQDLTRFLLGTKKFLPPRQKSTSALLANCTDPDPRDGGPITPNTTLESLDVIEAELGPLLRPGGAFEPENCNAQHHVAIVVPFRDRYAHLLLFLRNIHPFLMKQRIAYRIFIVEQTNGKPFNRAAMMNIGYLEALKLYQWDCFIFHDVDLLPLDDRNLYNCPRQPRHMSVAIDTLNFRLPYRSIFGGVSAMTREHFQAVNGFSNSFFGWGGEDDDMSNRLKHANLFISRYPVNIARYKMLKHQKEKANPKRYENLQNGMSKIEQDGINSIKYSIYSIKQFPTFTWYLAELKNSERKS
modifications: DmGalNAcT (47-403)
As for B4, the “Conversions (%)” value in data set [1] (0.2 mg/mL enzyme) and in data set [1] (0.5 mg/mL enzyme) was 0% each time. The “product formation, mass spectral analysis of Fabricator-digested samples” value in data set [1] is “no product formation”.

B5: AsGalNAcT (30-383): truncated Ascaris sum β-(1,4)-GalNAcT enzyme, amino acids 30-383 of SEQ ID NO: 3 (protein)
chain: DYSFWSPAFIISAPKTLTTLQPFSQSTSTNDLAVSALESVEFSMLDNSSILHASDNWTNDELVMRAQNENLQLCPMTPPALVGPIKVWMDAPSFAELERLYPFLEPGGHGMPTACRARHRVAIVVPYRDRESHLRTFLHNLHSLLTKQQLDYAIFVVEQTANETFNRAKLMNVGYAEAIRLYDWRCFIFHDVDLLPEDDRNLYSCPDEPRHMSVAVDKFNYKLPYGSIFGGISALTREQFEGINGFSNDYWGWGGEDDDLSTRVTLAGYKISRYPAEIARYKMIKHNSEKKNPVNRCRYKLMSATKSRWRNDGLSSLSYDLISLGRLPLYTHIKVDLLEKQSRRYLRTHGFPTC
modifications: AsGalNAcT (30-383)
For the molecule B5, the “Conversions (%)” value in data set [1] (0.2 mg/mL enzyme) is 10%; in data set [1] (0.5 mg/mL enzyme), 30%. The “product formation, mass spectral analysis of Fabricator-digested samples” value in data set [1] is listed as “partial conversion”.
